Columns and labels:
Experiment in all cases: cell-based or functional assay
[1] = molecular target: Omicron BA.4.6 spike on pseudovirus (SARS-CoV-2)
[2] = molecular target: Omicron BQ.1.1 spike on pseudovirus (SARS-CoV-2)
[3] = molecular target: Omicron BA.2.75 spike on pseudovirus (SARS-CoV-2)
[4] = molecular target: Gamma spike (P.1) on pseudovirus (SARS-CoV-2)
[5] = molecular target: Delta spike (B.1.617.2) on pseudovirus (SARS-CoV-2)
[6] = molecular target: Omicron BA.4/5 spike on pseudovirus (SARS-CoV-2)
[7] = molecular target: Omicron BA.2.12.1 spike on pseudovirus (SARS-CoV-2)
[8] = molecular target: Beta spike (B.1.351) on pseudovirus (SARS-CoV-2)
[9] = molecular target: Alpha spike (B.1.1.7) on pseudovirus (SARS-CoV-2)
[10] = molecular target: Omicron BA.1 spike on pseudovirus (SARS-CoV-2)
[11] = molecular target: Omicron BA.2 spike on pseudovirus (SARS-CoV-2)

Substance: Bebtelovimab (antibody)
- IC50, pseudovirus neutralization [1]: 0.0013 µg/mL
- IC50, pseudovirus neutralization [2]: > 5 µg/mL
- IC50, pseudovirus neutralization [3]: 0.0033 µg/mL
- IC50, pseudovirus neutralization [4]: 0.0017 µg/mL
- IC50, pseudovirus neutralization [5]: 0.0015 µg/mL
- IC50, pseudovirus neutralization [6]: 0.0014 µg/mL
- IC50, pseudovirus neutralization [7]: 0.0023 µg/mL
- IC50, pseudovirus neutralization [8]: 0.0009 µg/mL
- IC50, pseudovirus neutralization [9]: 0.002 µg/mL
- IC50, pseudovirus neutralization [10]: 0.0023 µg/mL
- IC50, pseudovirus neutralization [11]: 0.0018 µg/mL

Substance: Tixagevimab (antibody)
- IC50, pseudovirus neutralization [1]: > 5 µg/mL
- IC50, pseudovirus neutralization [2]: > 5 µg/mL
- IC50, pseudovirus neutralization [3]: 0.11 µg/mL
- IC50, pseudovirus neutralization [4]: 0.006 µg/mL
- IC50, pseudovirus neutralization [5]: 0.0008 µg/mL
- IC50, pseudovirus neutralization [6]: > 5 µg/mL
- IC50, pseudovirus neutralization [7]: 0.56 µg/mL
- IC50, pseudovirus neutralization [8]: 0.0054 µg/mL
- IC50, pseudovirus neutralization [9]: 0.0017 µg/mL
- IC50, pseudovirus neutralization [10]: 0.14 µg/mL
- IC50, pseudovirus neutralization [11]: > 5 µg/mL

Substance: Cilgavimab (antibody)
- IC50, pseudovirus neutralization [1]: > 5 µg/mL
- IC50, pseudovirus neutralization [2]: > 5 µg/mL
- IC50, pseudovirus neutralization [3]: 0.055 µg/mL
- IC50, pseudovirus neutralization [4]: 0.005 µg/mL
- IC50, pseudovirus neutralization [5]: 0.018 µg/mL
- IC50, pseudovirus neutralization [6]: 0.018 µg/mL
- IC50, pseudovirus neutralization [7]: 0.019 µg/mL
- IC50, pseudovirus neutralization [8]: 0.003 µg/mL
- IC50, pseudovirus neutralization [9]: 0.01 µg/mL
- IC50, pseudovirus neutralization [10]: 0.21 µg/mL
- IC50, pseudovirus neutralization [11]: 0.0091 µg/mL

Substance: Casirivimab (antibody)
- IC50, pseudovirus neutralization [1]: > 5 µg/mL
- IC50, pseudovirus neutralization [2]: > 5 µg/mL
- IC50, pseudovirus neutralization [3]: 0.44 µg/mL
- IC50, pseudovirus neutralization [4]: 0.18 µg/mL
- IC50, pseudovirus neutralization [5]: 0.0027 µg/mL
- IC50, pseudovirus neutralization [6]: > 5 µg/mL
- IC50, pseudovirus neutralization [7]: > 5 µg/mL
- IC50, pseudovirus neutralization [8]: 0.094 µg/mL
- IC50, pseudovirus neutralization [9]: 0.0052 µg/mL
- IC50, pseudovirus neutralization [10]: > 5 µg/mL
- IC50, pseudovirus neutralization [11]: > 5 µg/mL

Substance: Imdevimab (antibody)
- IC50, pseudovirus neutralization [1]: 0.18 µg/mL
- IC50, pseudovirus neutralization [2]: > 5 µg/mL
- IC50, pseudovirus neutralization [3]: > 5 µg/mL
- IC50, pseudovirus neutralization [4]: 0.0019 µg/mL
- IC50, pseudovirus neutralization [5]: 0.0035 µg/mL
- IC50, pseudovirus neutralization [6]: 0.32 µg/mL
- IC50, pseudovirus neutralization [7]: 0.1 µg/mL
- IC50, pseudovirus neutralization [8]: 0.0028 µg/mL
- IC50, pseudovirus neutralization [9]: 0.0028 µg/mL
- IC50, pseudovirus neutralization [10]: > 5 µg/mL
- IC50, pseudovirus neutralization [11]: 0.51 µg/mL

Substance: Etesevimab (antibody)
- IC50, pseudovirus neutralization [1]: > 5 µg/mL
- IC50, pseudovirus neutralization [2]: > 5 µg/mL
- IC50, pseudovirus neutralization [3]: > 5 µg/mL
- IC50, pseudovirus neutralization [4]: > 5 µg/mL
- IC50, pseudovirus neutralization [5]: 0.0058 µg/mL
- IC50, pseudovirus neutralization [6]: > 5 µg/mL
- IC50, pseudovirus neutralization [7]: > 5 µg/mL
- IC50, pseudovirus neutralization [8]: > 5 µg/mL
- IC50, pseudovirus neutralization [9]: 0.1 µg/mL
- IC50, pseudovirus neutralization [10]: > 5 µg/mL
- IC50, pseudovirus neutralization [11]: > 5 µg/mL

Substance: Bamlanivimab (antibody)
- IC50, pseudovirus neutralization [1]: > 5 µg/mL
- IC50, pseudovirus neutralization [2]: > 5 µg/mL
- IC50, pseudovirus neutralization [3]: > 5 µg/mL
- IC50, pseudovirus neutralization [4]: 1.4 µg/mL
- IC50, pseudovirus neutralization [5]: 0.59 µg/mL
- IC50, pseudovirus neutralization [6]: > 5 µg/mL
- IC50, pseudovirus neutralization [7]: > 5 µg/mL
- IC50, pseudovirus neutralization [8]: 0.21 µg/mL
- IC50, pseudovirus neutralization [9]: 0.0034 µg/mL
- IC50, pseudovirus neutralization [10]: > 5 µg/mL
- IC50, pseudovirus neutralization [11]: > 5 µg/mL

Reference: US20240158479A1
